The record followed here is paper PMC3074162.

T1: ParB 65-139 (RHH domain) (Leifsonia xyli subsp. cynodontis …, UniProt Q6EEF9 65-139)
T1 sequence: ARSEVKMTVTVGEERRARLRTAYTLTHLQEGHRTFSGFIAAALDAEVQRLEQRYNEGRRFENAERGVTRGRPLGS

B1: R3-18-9A (dsDNA)
DNA 1: GGAATAGGAGGAAAAGCC
DNA 2: GGCTTTTCCTCCTATTCC
B2: R3-18-12C (dsDNA)
DNA 1: GGAATAGGTGGCAAAGCC
DNA 2: GGCTTTGCCACCTATTCC
B3: R3-18-11C (dsDNA)
DNA 1: GGAATAGGTGCAAAAGCC
DNA 2: GGCTTTTGCACCTATTCC
B4: R3-18-14T (dsDNA)
DNA 1: GGAATAGGTGGAATAGCC
DNA 2: GGCTATTCCACCTATTCC
B5: R3-18-14G (dsDNA)
DNA 1: GGAATAGGTGGAAGAGCC
DNA 2: GGCTCTTCCACCTATTCC
B6: R3-18-18T (dsDNA)
DNA 1: GGAATAGGTGGAAAAGCT
DNA 2: AGCTTTTCCACCTATTCC
B7: R3-18-18A (dsDNA)
DNA 1: GGAATAGGTGGAAAAGCA
DNA 2: TGCTTTTCCACCTATTCC
B8: R3-18-5G (dsDNA)
DNA 1: GGAAGAGGTGGAAAAGCC
DNA 2: GGCTTTTCCACCTCTTCC
B9: R3-18-12G (dsDNA)
DNA 1: GGAATAGGTGGGAAAGCC
DNA 2: GGCTTTCCCACCTATTCC
B10: R4-16 (dsDNA)
DNA 1: GAAAAGCCAGAAACAG
DNA 2: CTGTTTCTGGCTTTTC
B11: R3-18-9C (dsDNA)
DNA 1: GGAATAGGCGGAAAAGCC
DNA 2: GGCTTTTCCGCCTATTCC
B12: R4-20 (dsDNA)
DNA 1: TGGAAAAGCCAGAAACAGTG
DNA 2: CACTGTTTCTGGCTTTTCCA
B13: R3-18-7A (dsDNA)
DNA 1: GGAATAAGTGGAAAAGCC
DNA 2: GGCTTTTCCACTTATTCC
B14: R3-18-16A (dsDNA)
DNA 1: GGAATAGGTGGAAAAACC
DNA 2: GGTTTTTCCACCTATTCC
B15: R1-18 (dsDNA)
DNA 1: TGGCTATCCAGTAAAGTA
DNA 2: TACTTTACTGGATAGCCA
B16: R3-18-16C (dsDNA)
DNA 1: GGAATAGGTGGAAAACCC
DNA 2: GGGTTTTCCACCTATTCC
B17: R3-18-6T (dsDNA)
DNA 1: GGAATTGGTGGAAAAGCC
DNA 2: GGCTTTTCCACCAATTCC
B18: R3-18-17G (dsDNA)
DNA 1: GGAATAGGTGGAAAAGGC
DNA 2: GCCTTTTCCACCTATTCC
B19: R3-18-2C (dsDNA)
DNA 1: GCAATAGGTGGAAAAGCC
DNA 2: GGCTTTTCCACCTATTGC
B20: R3-18-8C (dsDNA)
DNA 1: GGAATAGCTGGAAAAGCC
DNA 2: GGCTTTTCCAGCTATTCC
B21: R3-18-2A (dsDNA)
DNA 1: GAAATAGGTGGAAAAGCC
DNA 2: GGCTTTTCCACCTATTTC
B22: R3-18-11A (dsDNA)
DNA 1: GGAATAGGTGAAAAAGCC
DNA 2: GGCTTTTTCACCTATTCC
B23: R3-18-1C (dsDNA)
DNA 1: CGAATAGGTGGAAAAGCC
DNA 2: GGCTTTTCCACCTATTCG
B24: R3-18-6C (dsDNA)
DNA 1: GGAATCGGTGGAAAAGCC
DNA 2: GGCTTTTCCACCGATTCC
B25: R3-18-5C (dsDNA)
DNA 1: GGAACAGGTGGAAAAGCC
DNA 2: GGCTTTTCCACCTGTTCC
B26: R3-18-15C (dsDNA)
DNA 1: GGAATAGGTGGAAACGCC
DNA 2: GGCGTTTCCACCTATTCC
B27: R3-18-11T (dsDNA)
DNA 1: GGAATAGGTGTAAAAGCC
DNA 2: GGCTTTTACACCTATTCC
B28: R3-18-13T (dsDNA)
DNA 1: GGAATAGGTGGATAAGCC
DNA 2: GGCTTATCCACCTATTCC
B29: R3-18-7T (dsDNA)
DNA 1: GGAATATGTGGAAAAGCC
DNA 2: GGCTTTTCCACATATTCC
B30: R3-18-3C (dsDNA)
DNA 1: GGCATAGGTGGAAAAGCC
DNA 2: GGCTTTTCCACCTATGCC
B31: R3-18-3T (dsDNA)
DNA 1: GGTATAGGTGGAAAAGCC
DNA 2: GGCTTTTCCACCTATACC
B32: R3-18-13G (dsDNA)
DNA 1: GGAATAGGTGGAGAAGCC
DNA 2: GGCTTCTCCACCTATTCC
B33: R3-18-4T (dsDNA)
DNA 1: GGATTAGGTGGAAAAGCC
DNA 2: GGCTTTTCCACCTAATCC
B34: R3-18-9G (dsDNA)
DNA 1: GGAATAGGGGGAAAAGCC
DNA 2: GGCTTTTCCCCCTATTCC
B35: R3-18-6G (dsDNA)
DNA 1: GGAATGGGTGGAAAAGCC
DNA 2: GGCTTTTCCACCCATTCC
B36: R3-18-15G (dsDNA)
DNA 1: GGAATAGGTGGAAAGGCC
DNA 2: GGCCTTTCCACCTATTCC
B37: R3-18-4C (dsDNA)
DNA 1: GGACTAGGTGGAAAAGCC
DNA 2: GGCTTTTCCACCTAGTCC
B38: R3-18-1A (dsDNA)
DNA 1: AGAATAGGTGGAAAAGCC
DNA 2: GGCTTTTCCACCTATTCT
B39: R3-18-1T (dsDNA)
DNA 1: TGAATAGGTGGAAAAGCC
DNA 2: GGCTTTTCCACCTATTCA
B40: R3-18-17A (dsDNA)
DNA 1: GGAATAGGTGGAAAAGAC
DNA 2: GTCTTTTCCACCTATTCC
B41: R3-18-16T (dsDNA)
DNA 1: GGAATAGGTGGAAAATCC
DNA 2: GGATTTTCCACCTATTCC
B42: R3-18-8A (dsDNA)
DNA 1: GGAATAGATGGAAAAGCC
DNA 2: GGCTTTTCCATCTATTCC
B43: R3-18-8T (dsDNA)
DNA 1: GGAATAGTTGGAAAAGCC
DNA 2: GGCTTTTCCAACTATTCC
B44: R3-18-2T (dsDNA)
DNA 1: GTAATAGGTGGAAAAGCC
DNA 2: GGCTTTTCCACCTATTAC
B45: R2-18 (dsDNA)
DNA 1: AGTAAAGTAGGAATAGGT
DNA 2: ACCTATTCCTACTTTACT
B46: R3-18-7C (dsDNA)
DNA 1: GGAATACGTGGAAAAGCC
DNA 2: GGCTTTTCCACGTATTCC
B47: R3-18-13C (dsDNA)
DNA 1: GGAATAGGTGGACAAGCC
DNA 2: GGCTTGTCCACCTATTCC
B48: R3-18-15T (dsDNA)
DNA 1: GGAATAGGTGGAAATGCC
DNA 2: GGCATTTCCACCTATTCC
B49: R3-18-10T (dsDNA)
DNA 1: GGAATAGGTTGAAAAGCC
DNA 2: GGCTTTTCAACCTATTCC
B50: R3-18-14C (dsDNA)
DNA 1: GGAATAGGTGGAACAGCC
DNA 2: GGCTGTTCCACCTATTCC
B51: R3-18-3G (dsDNA)
DNA 1: GGGATAGGTGGAAAAGCC
DNA 2: GGCTTTTCCACCTATCCC
B52: R3-18-17T (dsDNA)
DNA 1: GGAATAGGTGGAAAAGTC
DNA 2: GACTTTTCCACCTATTCC
B53: R3-18-4G (dsDNA)
DNA 1: GGAGTAGGTGGAAAAGCC
DNA 2: GGCTTTTCCACCTACTCC
B54: R3-18-12T (dsDNA)
DNA 1: GGAATAGGTGGTAAAGCC
DNA 2: GGCTTTACCACCTATTCC
B55: R3-18-5A (dsDNA)
DNA 1: GGAAAAGGTGGAAAAGCC
DNA 2: GGCTTTTCCACCTTTTCC

The target of this data set is T1, ParB 65-139 (RHH domain). In words: ITC.
One may read the Kd as the concentration at which binding is half-saturated. Turning to B1, the Kd came to 143 ± 31 nM. The figure for B2 is 58 ± 31 nM; for B3 it is 56 ± 11 nM. The figure for B4 is 46 ± 8 nM. The same measure for B5: 42 ± 9 nM; for B6: 32 ± 6 nM. As to B7, the equilibrium dissociation constant (Kd) was determined as 46 ± 10 nM.

Regarding B8, the Kd is 38 ± 9 nM. The same measure for B9: 203 ± 43 nM. Consider B10, for which the Kd was 530 ± 50 nM. The same measure for B11: 46 ± 11 nM; for B12: 68 ± 48 nM.

B13 showed a Kd of 15 ± 5 nM. The figure for B14 is 22 ± 9 nM. The figure for B15 is 950 ± 680 nM; for B16 it is 20 ± 7 nM.

For the molecule B17, the Kd turned out to be 37 ± 5 nM. In the case of B18, the dissociation constant Kd amounted to 35 ± 11 nM. With B19, the Kd is 189 ± 22 nM.

The molecule B20 registered a dissociation constant (Kd) of 32 ± 8 nM. Regarding B21, the Kd came out at 59 ± 29 nM.

B22: the affinity, expressed as Kd, was 44 ± 21 nM. B23 returned a Kd of 216 ± 22 nM. The same measure for B24: 60 ± 28 nM. On to B25, for which the affinity, expressed as Kd, was 39 ± 13 nM. The same measure for B26: 81 ± 8 nM; for B27: 41 ± 9 nM; for B28: 73 ± 22 nM. Molecule B29 yielded an equilibrium dissociation constant (Kd) of 35 ± 5 nM.

B30 registered an equilibrium dissociation constant (Kd) of 89 ± 13 nM. For B31, the Kd is 123 ± 12 nM. The figure for B32 is 64 ± 15 nM; for B33 it is 33 ± 8 nM. The same measure for B34: 365 ± 57 nM; for B35: 209 ± 77 nM. The molecule B36 returned a Kd of 88 ± 12 nM.

B37 gave a Kd of 45 ± 12 nM. Compared with the last molecule, the Kd is about 2-fold lower.

The molecule B38 showed a Kd of 56 ± 12 nM. The same measure for B39: 67 ± 6 nM. Regarding B40, the dissociation constant (Kd) is 84 ± 13 nM. The molecule B41 had a Kd of 16 ± 6 nM. Compared with the last molecule, the Kd is about 5.2-fold lower. Consider B42, for which the Kd came to 30 ± 7 nM. B43 showed a Kd of 17 ± 6 nM. In the case of B44, binding was characterised by a dissociation constant (Kd) of 187 ± 20 nM. The same measure for B45: 380 ± 100 nM; for B46: 36 ± 9 nM; for B47: 46 ± 12 nM. B48: the equilibrium dissociation constant (Kd) came out at 30 ± 6 nM. In the case of B49, the dissociation constant Kd stood at 18 ± 2 nM. Against the preceding molecule, the Kd is about 1.7-fold lower. The same measure for B50: 33 ± 10 nM; for B51: 121 ± 31 nM. The figure for B52 is 30 ± 8 nM. Molecule B53 registered a Kd of 62 ± 15 nM. The same measure for B54: 57 ± 16 nM; for B55: 27 ± 11 nM.
